What all share (assay): BLI; Fortebio Octet Red96; SHH002-hu1 captured on Anti-Human Fab-CH1 2nd Generation Sensor; rhFzd1/2/5/7/8 in solution at different concentrations (rhFzd7: 6.25, 25, 100, 400 nmol/L); KB buffer (0.1% BSA + 0.05% Tween 20 in PBS, pH 7.2); KD from kd/ka
What all share (conditions): both partners purified
In general terms: In BLI a coated tip is dipped into the sample, and binding shifts an interference pattern.

Assay [1] has as its target T1, rhFzd7 (Homo sapiens, UniProt O75084).
T1 construct: Frizzled-7, human, recombinant; the discussion says only that the recombinant human Fzd7 extracellular CRD protein was used to immunize mice; also called recombinant human Frizzled-7

In assay [2] the target is T2, rhFzd1 (Homo sapiens, UniProt Q9UP38).
T2 construct: Frizzled-1, human, recombinant
T2 sequence (Q9UP38 70-647): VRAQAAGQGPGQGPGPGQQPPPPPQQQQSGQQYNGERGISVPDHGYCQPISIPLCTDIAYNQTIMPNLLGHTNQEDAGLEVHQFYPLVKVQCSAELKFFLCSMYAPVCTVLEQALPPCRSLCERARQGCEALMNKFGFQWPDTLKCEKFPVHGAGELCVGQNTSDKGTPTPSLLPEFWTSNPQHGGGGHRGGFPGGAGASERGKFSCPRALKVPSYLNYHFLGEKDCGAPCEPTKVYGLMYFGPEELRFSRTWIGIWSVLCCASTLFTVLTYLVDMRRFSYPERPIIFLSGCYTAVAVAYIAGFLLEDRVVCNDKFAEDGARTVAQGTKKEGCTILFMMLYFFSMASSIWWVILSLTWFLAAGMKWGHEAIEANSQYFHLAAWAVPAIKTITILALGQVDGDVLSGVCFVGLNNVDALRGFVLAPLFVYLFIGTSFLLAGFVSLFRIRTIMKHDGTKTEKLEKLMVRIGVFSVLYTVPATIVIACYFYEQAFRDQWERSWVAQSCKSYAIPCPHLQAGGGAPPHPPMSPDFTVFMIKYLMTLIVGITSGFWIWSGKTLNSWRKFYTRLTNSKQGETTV

In assay [3] the target is T3, rhFzd2 (Homo sapiens, UniProt Q14332).
T3 construct: Frizzled-2, human, recombinant
T3 sequence (Q14332 24-565): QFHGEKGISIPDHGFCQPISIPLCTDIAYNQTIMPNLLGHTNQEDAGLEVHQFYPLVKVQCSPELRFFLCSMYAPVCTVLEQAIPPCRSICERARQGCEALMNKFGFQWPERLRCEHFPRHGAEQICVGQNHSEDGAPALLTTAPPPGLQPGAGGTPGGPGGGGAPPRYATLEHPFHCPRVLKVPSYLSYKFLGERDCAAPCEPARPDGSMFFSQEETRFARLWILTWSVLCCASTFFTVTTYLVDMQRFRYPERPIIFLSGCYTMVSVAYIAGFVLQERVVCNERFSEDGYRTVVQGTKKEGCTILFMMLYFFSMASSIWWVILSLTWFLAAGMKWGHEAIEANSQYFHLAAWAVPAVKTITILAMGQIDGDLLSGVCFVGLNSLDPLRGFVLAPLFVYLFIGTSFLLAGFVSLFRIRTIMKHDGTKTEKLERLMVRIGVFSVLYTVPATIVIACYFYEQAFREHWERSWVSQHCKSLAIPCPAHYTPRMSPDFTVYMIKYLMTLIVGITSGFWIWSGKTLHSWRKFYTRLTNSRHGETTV

Assay [4] deals with T4, rhFzd5 (Homo sapiens, UniProt Q13467).
T4 construct: Frizzled-5, human, recombinant
T4 sequence (Q13467 27-585): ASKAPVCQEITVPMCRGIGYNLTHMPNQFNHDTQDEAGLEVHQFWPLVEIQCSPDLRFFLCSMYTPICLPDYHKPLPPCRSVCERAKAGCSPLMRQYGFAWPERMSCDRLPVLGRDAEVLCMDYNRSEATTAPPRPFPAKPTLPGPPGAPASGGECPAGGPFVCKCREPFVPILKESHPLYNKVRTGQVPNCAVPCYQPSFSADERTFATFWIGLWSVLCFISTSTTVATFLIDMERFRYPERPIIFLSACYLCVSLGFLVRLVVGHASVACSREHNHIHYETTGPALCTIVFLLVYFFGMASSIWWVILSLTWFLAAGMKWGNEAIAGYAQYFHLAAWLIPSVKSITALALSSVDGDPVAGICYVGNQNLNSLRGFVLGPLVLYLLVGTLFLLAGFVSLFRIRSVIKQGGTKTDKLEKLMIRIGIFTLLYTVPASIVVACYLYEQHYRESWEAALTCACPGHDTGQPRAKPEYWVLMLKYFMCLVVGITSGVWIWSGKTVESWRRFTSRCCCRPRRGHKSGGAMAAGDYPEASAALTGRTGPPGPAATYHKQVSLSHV

Assay [5] has as its target T5, rhFzd8 (Homo sapiens, UniProt Q9H461).
T5 construct: Frizzled-8, human, recombinant

Where only a bound is given, the exact number is not on record here.

T5 sequence (Q9H461 28-694): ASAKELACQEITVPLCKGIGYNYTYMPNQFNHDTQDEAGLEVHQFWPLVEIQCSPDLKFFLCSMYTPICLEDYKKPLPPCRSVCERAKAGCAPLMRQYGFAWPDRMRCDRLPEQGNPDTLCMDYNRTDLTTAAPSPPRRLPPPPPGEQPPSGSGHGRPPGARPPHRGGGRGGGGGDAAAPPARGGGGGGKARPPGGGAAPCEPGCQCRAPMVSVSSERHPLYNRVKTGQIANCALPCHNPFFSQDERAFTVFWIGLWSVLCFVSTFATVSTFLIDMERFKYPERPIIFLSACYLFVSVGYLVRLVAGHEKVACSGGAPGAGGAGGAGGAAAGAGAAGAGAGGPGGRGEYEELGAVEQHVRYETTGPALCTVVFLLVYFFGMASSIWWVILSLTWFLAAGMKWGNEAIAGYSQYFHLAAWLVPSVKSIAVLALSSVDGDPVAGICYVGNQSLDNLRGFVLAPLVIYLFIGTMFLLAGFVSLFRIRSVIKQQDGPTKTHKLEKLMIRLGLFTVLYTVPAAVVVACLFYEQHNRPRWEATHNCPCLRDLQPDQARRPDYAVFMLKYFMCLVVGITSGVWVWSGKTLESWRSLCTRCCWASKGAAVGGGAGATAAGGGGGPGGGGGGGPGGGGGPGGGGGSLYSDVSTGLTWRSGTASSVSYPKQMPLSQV

B1: SHH002-hu1 (antibody, V domains shown)
VH: QVQLVQSGAEVKKPGASVKMSCKASGYTFTTYTMHWVRQAPGQGLEWIGYINPRSGYTNYNQKFQGRATVTADKSTSTAYMELSSLRSEDTAVYYCARRGYFDYWGQGTTVTVSS
VL: DIQLTQSPSSLSVSVGDRATITCRASESVDDYGNTFMHWYQQKPGKAPKLLIYLASNLQSGVPSRFSGSGSRTDFTLTISSVQAEDAATYYCQQNNEDPYTFGQGTKLEIK
notes: Whole antibody of 150 kDa (HC 50 kDa, LC 25 kDa); humanization degree 98%; detected with anti-human IgG H&L; also called humanized antibody targeting Fzd7; humanized anti-Fzd7 antibody
What is called Kd is the constant that tells how readily two partners part at equilibrium. For orientation: koff means the first-order rate constant of dissociation. Broadly, the kon is the second-order rate constant of association. B1: in assay [1], the Kd is less than 1 pM. Besides, in assay [1], the koff was less than 1e-07 s⁻¹. For the same molecule, in assay [1], the kon worked out at 400000 M⁻¹ s⁻¹. In addition, the binding result in assay [2], in assay [3], in assay [4] and in assay [5] was “no binding” in each case.

For the origin of these results see paper PMC7802198, “A novel humanized Frizzled-7-targeting antibody enhances antitumor effects of Bevacizumab against triple-negative breast cancer via blocking Wnt/β-catenin signaling pathway” (Journal of Experimental & Clinical Cancer Research : CR, 2021).
